Measurements reported in patent US7732133B2, “Screening methods for biologically active ligands” (Chugai Seiyaku Kabushiki Kaisha, priority 2000, dated 2010).

Target: T1, chimeric CNTF receptor (human CNTF receptor expressed in chimeric LIF receptor cell line LIG) in Ba/F3 cell line CNG (Homo sapiens, UniProt P26992+P40189+P42702)
T1 construct: from the 1st to the 372nd amino acid residues; expressed in transfected cells; host or cells: Ba/F3-derived cell line LIG transfected with pCV-CNTFR, clone CNG#203 = CNG
T1 sequence (P26992 23-372, change not shown): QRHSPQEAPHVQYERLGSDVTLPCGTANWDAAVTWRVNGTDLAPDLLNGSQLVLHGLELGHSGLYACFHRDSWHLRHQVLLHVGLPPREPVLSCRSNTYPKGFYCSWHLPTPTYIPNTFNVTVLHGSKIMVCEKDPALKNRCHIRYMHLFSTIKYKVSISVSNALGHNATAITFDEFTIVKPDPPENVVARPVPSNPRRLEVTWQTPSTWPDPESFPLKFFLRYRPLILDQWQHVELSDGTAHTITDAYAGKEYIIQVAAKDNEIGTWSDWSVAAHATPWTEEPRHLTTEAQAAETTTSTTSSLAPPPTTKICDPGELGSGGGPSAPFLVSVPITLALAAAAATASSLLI
T1 sequence (P42702 45-833, change not shown): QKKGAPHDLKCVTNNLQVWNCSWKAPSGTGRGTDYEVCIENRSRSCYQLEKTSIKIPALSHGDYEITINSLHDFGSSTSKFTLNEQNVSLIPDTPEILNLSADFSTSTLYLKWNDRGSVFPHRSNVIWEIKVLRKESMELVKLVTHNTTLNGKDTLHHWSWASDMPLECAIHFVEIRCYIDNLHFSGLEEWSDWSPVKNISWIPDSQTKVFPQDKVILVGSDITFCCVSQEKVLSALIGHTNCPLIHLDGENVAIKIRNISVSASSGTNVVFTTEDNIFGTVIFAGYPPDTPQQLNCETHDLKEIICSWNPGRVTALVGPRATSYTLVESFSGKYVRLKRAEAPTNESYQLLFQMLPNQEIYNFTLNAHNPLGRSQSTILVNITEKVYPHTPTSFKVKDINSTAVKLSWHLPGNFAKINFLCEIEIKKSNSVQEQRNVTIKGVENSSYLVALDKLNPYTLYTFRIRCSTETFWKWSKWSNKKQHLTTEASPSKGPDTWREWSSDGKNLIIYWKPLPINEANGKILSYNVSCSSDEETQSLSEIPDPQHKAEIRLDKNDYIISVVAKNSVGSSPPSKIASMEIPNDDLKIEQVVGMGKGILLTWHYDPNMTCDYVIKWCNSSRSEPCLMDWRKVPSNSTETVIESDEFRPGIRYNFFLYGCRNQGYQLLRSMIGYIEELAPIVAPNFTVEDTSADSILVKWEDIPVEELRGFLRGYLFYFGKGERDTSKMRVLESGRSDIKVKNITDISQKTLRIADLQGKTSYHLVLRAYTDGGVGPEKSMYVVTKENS
T1 sequence (P40189 23-619, change not shown): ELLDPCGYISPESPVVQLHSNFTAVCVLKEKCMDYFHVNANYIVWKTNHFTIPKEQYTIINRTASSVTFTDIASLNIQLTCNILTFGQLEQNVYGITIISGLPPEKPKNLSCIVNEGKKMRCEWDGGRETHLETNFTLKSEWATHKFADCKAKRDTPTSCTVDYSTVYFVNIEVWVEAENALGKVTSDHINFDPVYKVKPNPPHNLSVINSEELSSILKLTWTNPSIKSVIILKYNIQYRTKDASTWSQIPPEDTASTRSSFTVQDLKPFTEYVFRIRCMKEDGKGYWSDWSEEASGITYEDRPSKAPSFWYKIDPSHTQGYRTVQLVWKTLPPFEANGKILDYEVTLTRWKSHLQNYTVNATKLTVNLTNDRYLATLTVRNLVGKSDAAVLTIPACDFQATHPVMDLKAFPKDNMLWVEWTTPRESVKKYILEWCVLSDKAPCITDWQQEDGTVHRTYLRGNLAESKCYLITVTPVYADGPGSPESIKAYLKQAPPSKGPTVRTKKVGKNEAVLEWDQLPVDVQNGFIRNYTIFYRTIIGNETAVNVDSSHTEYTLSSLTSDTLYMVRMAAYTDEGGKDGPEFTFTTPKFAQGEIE
T1 sequence (P40223 627-837 partner limits assumed): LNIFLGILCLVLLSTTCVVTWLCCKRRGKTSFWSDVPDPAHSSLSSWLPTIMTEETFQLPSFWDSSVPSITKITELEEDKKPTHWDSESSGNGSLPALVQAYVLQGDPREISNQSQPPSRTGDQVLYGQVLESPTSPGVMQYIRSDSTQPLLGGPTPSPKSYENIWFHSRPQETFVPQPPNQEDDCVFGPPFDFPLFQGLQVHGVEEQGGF
Experiment: Growth response of chimeric CNTF receptor-expressing Ba/F3 cell line CNG (WST-8)
Format: cell-based
Details: 72 hours culture, WST-8 absorbance
Source text: Human CNTF receptor (from the 1st to the 372nd amino acid residues; Davis, S. et al. (1991) Science, 253, 59-63) cDNA was cloned downstream of the HEF1α promoter of a mammalian expression vector, pCV, to construct human CNTF receptor (CNTFR) expression vector, pCV-CNTFR. pCV-CNTFR was linearized with Pvu I (Takara Shuzo), extracted with phenol and chloroform, and purified by ethanol precipitation.
The linearized expression gene vector was introduced into the chimeric LIF receptor-expressing cell line LIG (see section 1-13) using an electroporation apparatus (Gene Pulser: Bio Rad). The LIG cells were washed twice with Dulbecco's PBS (hereinafter referred to as PBS), and then were suspended in PBS to give a cell density of about 1×10^7 cells/mL. […]
The cells were washed twice with Media A, and were suspended in Media A to give a cell density of 5×10^4 cells/mL. […] After the culture, 10 μL/well WST-8 reagent (Cell Count Reagent SF; Nacalai Tesque) was added, and pre-reaction absorbance at a measurement wavelength of 450 nm and a control wavelength of 655 nm was measured using microplate reader (Model 3550, Bio Rad). The plate was incubated for two hours in a CO2 incubator (CO2 concentration, 5%), and post-reaction absorbance was measured as above. […]

B1: human CNTF: human ciliary neurotrophic factor (Genzyme) (protein, UniProt P26441 1-200, looked up)
Ciliary neurotrophic factor: MAFTEHSPLTPHRRDLCSRSIWLARKIRSDLTALTESYVKHQGLNKNINLDSADGMPVASTDQWSELTEAERLQENLQAYRTFHVLLARLLEDQQVHFTPTEGDFHQAIHTLLLQVAAFAYQIEELMILLEYKIPRNEADGMPINVGDGGLFEKKLWGLKVLQELSQWTVRSIHDLRFISSHQTGIPARGSHYIANNKKM
- concentration at which an evident growth reaction was observed: ≥ 0.3 ng/mL
